The values below come from patent US20170307628A1 (EIDGENOESSISCHE TECHNISCHE HOCHSCHULE ZURICH, published 2017).

In the test the target is T1, EGFR on cells (UniProt P00533 25-1210, limits assumed).
T1 construct: whole, on cells; also called epidermal growth factor receptor
The experiment in a line: flow cytometry on MDA-MB-468 cells, anti-human-Alexa 488.

B1: anti-CD3 antibody (COVA489) (antibody, human IgG1, kappa, V domains shown)
VH: QVQLQQSGAELARPGASVKMSCKASGYTFTRSTMHWVKQRPGQGLEWIGYINPSSAYTNYNQKFKDKATLTADKSSSTAYMQLSSLTSEDSAVYYCASPQVHYDYNGFPYWGQGTLVTVSA
VL: QVVLTQSPAIMSAFPGEKVTMTCSASSSVSYMNWYQQKSGTSPKRWIYDSSKLASGVPARFSGSGSGTSYSLTISSMETEDAATYYCQQWSRNPPTFGGGTKLQITR
As to B1, the binding result was “no binding (tested: 100 nM)”.
